Patent publication US20220332800A1 (Takeda / Millennium, published 2022)

Experiments:
[1] = target: Zika PRVABC59 live virus (Zika virus); experiment: cell-based or functional assay
[2] = target: T1, ZIKV-VLP (Native Antigen Inc.) (Zika virus); experiment: indirect ELISA, purified antibody serially diluted from 10 µg/ml
T1 construct: also called Zika VLP; ZVLP

[3] = target: T1, ZIKV-VLP (Native Antigen Inc.); experiment: BLI binning on ZIKV-VLP; 1st mAb: 242-3
[4] = target: T1, ZIKV-VLP (Native Antigen Inc.); experiment: BLI (Octet), supernatant IgG captured on Protein A biosensor, ZIKV-VLP 3.3 µg/mL in solution, 1:1 model
[5] = target: T1, ZIKV-VLP (Native Antigen Inc.); experiment: BLI binning on ZIKV-VLP; 1st mAb: 4G2
[6] = target: T1, ZIKV-VLP (Native Antigen Inc.); experiment: BLI binning on ZIKV-VLP; 1st mAb: Ab1
[7] = target: T1, ZIKV-VLP (Native Antigen Inc.); experiment: BLI binning on ZIKV-VLP; 1st mAb: Ab2
[8] = target: T1, ZIKV-VLP (Native Antigen Inc.); experiment: BLI binning on ZIKV-VLP; 1st mAb: C10
[9] = target: T1, ZIKV-VLP (Native Antigen Inc.); experiment: BLI binning on ZIKV-VLP; 1st mAb: 11-3
[10] = target: T1, ZIKV-VLP (Native Antigen Inc.); experiment: BLI binning on ZIKV-VLP; 1st mAb: 78-2
[11] = target: T1, ZIKV-VLP (Native Antigen Inc.); experiment: BLI binning on ZIKV-VLP; 1st mAb: 102-1
[12] = target: T1, ZIKV-VLP (Native Antigen Inc.); experiment: BLI binning on ZIKV-VLP; 1st mAb: 181-4
[13] = target: T1, ZIKV-VLP (Native Antigen Inc.); experiment: BLI binning on ZIKV-VLP; 1st mAb: 260-2
[14] = target: T1, ZIKV-VLP (Native Antigen Inc.); experiment: BLI binning on ZIKV-VLP; 1st mAb: 289-3
[15] = target: T1, ZIKV-VLP (Native Antigen Inc.); experiment: BLI binning on ZIKV-VLP; 1st mAb: 306-2
[16] = target: T1, ZIKV-VLP (Native Antigen Inc.); experiment: BLI binning on ZIKV-VLP; 1st mAb: 329-2
[17] = target: T1, ZIKV-VLP (Native Antigen Inc.); experiment: BLI binning on ZIKV-VLP; 1st mAb: 270-12

| Binder | MNT IC50 (ng/mL) of Purified antibody [1] | EC50 [2] | response of 2nd mAb [3] | koff [4] | response of 2nd mAb [5] | response of 2nd mAb [6] | response of 2nd mAb [7] | response of 2nd mAb [8] | response of 2nd mAb [9] | response of 2nd mAb [10] | response of 2nd mAb [11] | response of 2nd mAb [12] | response of 2nd mAb [13] | response of 2nd mAb [14] | response of 2nd mAb [15] | response of 2nd mAb [16] | response of 2nd mAb [17] |
| --- | --- | --- | --- | --- | --- | --- | --- | --- | --- | --- | --- | --- | --- | --- | --- | --- | --- |
| anti-ZIKV antibody 181-4/329-2 (antibody) heavy: QAQLEESGGDLVKPEGSLTLTCTASGFSFTDRHYMCWVRQAPGKGLEWIACVYPGSSGSTYYASWARGRFTISKTSSTTVTLRMTSLTAADTATYFCARSSYPDSSGYSYGMDLWGPGTLVTVSSGQPKAPSVFPLAPCCGDTPSSTVTLGCLVKGYLPEPVTVTWNSGTLTNGVRTFPSVRQSSGLYSLSSVVSVTSSSQPVTCNVAHPATNTKVDKTVAPSTCSKPTCPPPELLGGPSVFIFPPKPKDTLMISRTPEVTCVVVDVSQDDPEVQFTWYINNEQVRTARPPLREQQFNSTIRVVSTLPIAHQDWLRGKEFKCKVHNKALPAPIEKTISKARGQPLEPKVYTMGPPREELSSRSVSLTCMINGFYPSDISVEWEKNGKAEDNYKTTPAVLDSDGSYFLYSKLSVPTSEWQRGDVFTCSVMHEALHNHYTQKSISRSPGK light: DIVMTQTPASVEAAVGGTVTIKCQASQNINSNLAWYQQKPGQRPKFLMYLTSKLASGVPSRFRGSGSGTQFTLTISDLECADAATYYCQTYYDISNYGYAFGGGTEVVVKGDPVAPTVLIFPPAADQVATGTVTIVCVANKYFPDVTVTWEVDGTTQTTGIENSKTPQNSADCTYNLSSTLTLTSTQYNSHKEYTCKVTQGTTSVVQSFNRGDC | 26.7 ng/mL | 0.0114 µg/mL | 0.01 | < 1e-07 s⁻¹ | – | – | – | – | – | – | – | – | – | – | – | – | – |
| anti-ZIKV antibody 260-3 (antibody, also called clone 260-3) heavy: QAQLEESGGDLVKPEGSLTLTCTASGFSFTDRHYMCWVRQAPGKGLEWIACVYPGSSGSTYYASWARGRFTISKTSSTTVTLRMTSLTAADTATYFCARSSYPDSSGYSYGMDLWGPGTLVTVPSGQPKAPSVFPLAPCCGDTPSSTVTLGCLVKGYLPEPVTVTWNSGTLTNGVRTFPSVRQSSGLYSLSSVVSVTSSSQPVTCNVAHPATNTKVDKTVAPSTCSKPTCPPPELLGGPSVFIFPPKPKDTLMISRTPEVTCVVVDVSQDDPEVQFTWYINNEQVRTARPPLREQQFNSTIRVVSTLPIAHQDWLRGKEFKCKVHNKALPAPIEKTISKARGQPLEPKVYTMGPPREELSSRSVSLTCMINGFYPSDISVEWEKNGKAEDNYKTTPAVLDSDGSYFLYSKLSVPTSEWQRGDVFTCSVMHEALHNHYTQKSISRSPGK light: DIVMTQTPASVEAAVGGTVTIKCQASQNINSNLAWYQQKPGQRPKFLMYLTSKLASGVPSRFRGSGSGTQFTLTISDLECADAATYYCQTYYDISNYGYAFGGGTEVVVKGDPVAPTVLIFPPAADQVATGTVTIVCVANKYFPDVTVTWEVDGTTQTTGIENSKTPQNSADCTYNLSSTLTLTSTQYNSHKEYTCKVTQGTTSVVQSFNRGDC | 19.9 ng/mL | 0.00793 µg/mL | 0.01 | < 1e-07 s⁻¹ | 0.67 | 0.32 | 4.96 | 4.06 | 0.36 | 0.33 | 0.03 | 0 | 0 | -0.03 | 0.32 | 0.01 | 0.01 |
